Data reported in PMC5428876, “The role of Lon-mediated proteolysis in the dynamics of mitochondrial nucleic acid-protein complexes”.

Legend:
Abf2 = target: T1, Abf2 (Saccharomyces cerevisiae, UniProt Q02486 27-183, del1-26); test: EMSA; 25 mM Tris-HCl pH 7.4, 100 mM NaCl, 0.1 mg/ml BSA, 10 min, 30 C (Abf2) or 37 C (TFAM); Cy3 probes 75 nM, ssDNA 10 uM, dsDNA 4 uM; Mgm101 as in Pevala et al.; details: protein: recombinant, tags: 6xHis-GST removed by PreScission, chain copies: 2, label: 5' Cy3
T1 sequence: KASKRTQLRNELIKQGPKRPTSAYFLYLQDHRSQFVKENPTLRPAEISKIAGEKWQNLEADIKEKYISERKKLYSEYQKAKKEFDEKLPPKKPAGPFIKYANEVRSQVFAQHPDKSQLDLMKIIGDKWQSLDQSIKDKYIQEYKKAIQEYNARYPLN

[1] = target: T2, Saccharomyces cerevisiae mtDNA packaging protein Abf2 lacking the mitochondrial targeting sequence (S. cerevisiae), Q02486; test: SEC; final purification step of Abf2 on Superdex 75 10/300 GL in buffer B (50 mM ammonium acetate, pH 7.3, 500 mM KCl) with 5% (v/v) glycerol; details: remark: other sources report otherwise
T2 chain: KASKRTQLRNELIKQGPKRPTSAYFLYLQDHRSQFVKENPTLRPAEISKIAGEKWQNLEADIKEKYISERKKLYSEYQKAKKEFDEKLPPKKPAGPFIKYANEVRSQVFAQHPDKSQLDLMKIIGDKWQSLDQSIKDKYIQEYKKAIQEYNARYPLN

B1: dsDNA 49 bp (dsDNA)
DNA 1: AGCTACCATGCCTGCACGAATTAAGCAATTCGTAATCATGGTCATAGCT
DNA 2: AGCTATGACCATGATTACGAATTGCTTAATTCGTGCAGGCATGGTAGCT
- binding result (Abf2; blunt): binds

B2: Y-form (structured_DNA)
DNA 1: AGCTACCATGCCTGCACGAATTAAGCAATTCGTAATCATGGTCATAGCT
DNA 2: AGCTATGACCATGATTACGAATTGCTTGGAATCCTGACGAACTGTAG
- binding result (Abf2; Y-form): binds

B3: 5' flap (structured_DNA)
DNA 1: AGCTACCATGCCTGCACGAATTAAGCAATTCGTAATCATGGTCATAGCT
DNA 2: AGCTATGACCATGATTACGAATTGCTT
DNA 3: GATGTCAAGCAGTCCTAAGGAATTCGTGCAGGCATGGTAGCT
- binding result (Abf2; flap 1:2 1:3, 5' flap 20 nt on strand 3): binds

B4: 3' flap (structured_DNA)
DNA 1: AGCTACCATGCCTGCACGAATTAAGCAATTCGTAATCATGGTCATAGCT
DNA 2: AATTCGTGCAGGCATGGTAGCT
DNA 3: AGCTATGACCATGATTACGAATTGCTTGGAATCCTGACGAACTGTAG
- binding result (Abf2; flap 1:2 1:3, 3' flap 20 nt on strand 3): binds

B5: fork (structured_DNA)
DNA 1: AGCTACCATGCCTGCACGAATTAAGCAATTCGTAATCATGGTCATAGCT
DNA 2: AGCTATGACCATGATTACGAATTGCTTGGAATCCTGACGAACTGTAG
DNA 3: CTACAGTTCGTCAGGATTCC
DNA 4: AATTCGTGCAGGCATGGTAGCT
- binding result (Abf2; fork): binds

B6: 3' overhang (mixed)
DNA 1: AGCTACCATGCCTGCACGAATTAAGCAATTCGTAATCATGGTCATAGCT
DNA 2: AATTCGTGCAGGCATGGTAGCT
- binding result (Abf2; 3' overhang 27 nt): binds

B7: 5' overhang (mixed)
DNA 1: AGCTACCATGCCTGCACGAATTAAGCAATTCGTAATCATGGTCATAGCT
DNA 2: AGCTATGACCATGATTACGAATTGCTT
- binding result (Abf2; 5' overhang 22 nt): binds

B8: Saccharomyces cerevisiae mtDNA packaging protein Abf2 lacking the mitochondrial targeting sequence, Q02486 27-183 (natural protein)
chain: KASKRTQLRNELIKQGPKRPTSAYFLYLQDHRSQFVKENPTLRPAEISKIAGEKWQNLEADIKEKYISERKKLYSEYQKAKKEFDEKLPPKKPAGPFIKYANEVRSQVFAQHPDKSQLDLMKIIGDKWQSLDQSIKDKYIQEYKKAIQEYNARYPLN
- stoichiometry N [1]: 2
